Reference: paper doi:10.1101/2020.04.07.029900, “Pat1 increases the range of decay factors and RNA bound by the Lsm1-7 complex” (bioRxiv, 2020)

Legend:
Lsm1-7 complex = target: T1, Lsm1-7 complex (S. pombe, UniProt P87173 1-140; O94408 1-96; Q9Y7M4 1-93; O14352 1-121; O42978 1-80; Q9UUI1 1-75; …); experiment: SEC; PatMC co-expressed with His6-Lsm1-7 in E. coli, co-purified on Ni-NTA and heparin, TEV, then preparative Superdex 200 16/60 in 400 mM NaCl, 20 mM HEPES 7.0, 1 mM DTT; SDS-PAGE of the complex; conditions: both partners purified
T1 construct: Lsm1, S. pombe; from a polycistron of all seven Lsm proteins; Lsm2, S. pombe; Lsm3, S. pombe; Lsm4, S. pombe; Lsm5, S. pombe; Lsm6, S. pombe; Lsm7, S. pombe; Expected mass of the monomeric complex 81 kDa; In the droplet experiment 0.1 uM of it carried Alexa Fluor 555 maleimide; In the co-purification with PatMC the His6 tag on Lsm1 was present on Ni-NTA and cut by TEV before gel filtration; also …
T1 sequence (Q9Y7M4 whole entry, chain 3 of 2): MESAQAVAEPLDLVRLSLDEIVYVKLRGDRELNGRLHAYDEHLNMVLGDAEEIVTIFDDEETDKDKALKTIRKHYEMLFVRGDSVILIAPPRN
T1 sequence (O42978 whole entry, chain 5 of 2): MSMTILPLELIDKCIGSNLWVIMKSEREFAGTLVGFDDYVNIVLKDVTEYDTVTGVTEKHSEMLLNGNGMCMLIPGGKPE

[1] = target: the molecule itself; experiment: AUC; sedimentation velocity, 9.3 uM PatMC/Lsm1-7 with stoichiometric A15 RNA, 250 mM NaCl, 20 mM HEPES pH 7.0, 1 mM DTT, 30,000 rpm, 10-12 hours
[2] = target: the molecule itself; experiment: AUC; sedimentation velocity, 9.3 uM PatMC/Lsm1-7 without RNA, 250 mM NaCl, 20 mM HEPES pH 7.0, 1 mM DTT, 30,000 rpm, 10-12 hours

binding result (Lsm1-7 complex) | Binder | stoichiometry N [1] | stoichiometry N [2]
binds | PatMC (middle and C-terminal domains of Pat1, residues 296-754) (domain or fragment, S. pombe, UniProt O42958 296-754, looked up, Pat1, S. pombe, middle and C-terminal domains (PatMC), residues 296-754; codon optimized gene in site two of pET-Duet; No tag is told for PatMC in the co-expression construct; source: E. coli BL21(DE3)*, co-expressed with Lsm1-7 from pET-Duet, co-purified (Ni-NTA, heparin, Superdex 200)) LDEKRQKLERDHMLMAQCAGLMTRSDKSFIARIQISQLMSEDPESDDFYYRVYSIIRGRKPSEEEASHFIQTYLGPSNNRRRGRRSENPMQKLQQQLQRLVSSAKERPKATQLSLEGALGKIAVNTVRTPRQLLNVKRPTEPASSNSSLNNFSGFSTKKDVLHAIEKVYDLLLDFEQALRKASTLETTDQEQIDTWKTTLSEKLESIWKALYINESLEASSKTRPPFISIISHPKGMRLLPRLFPHLSKEQQISILKVVVYNFDSLDIVLRGTFDVNGELPLDVVSEMSSFTQFIIPPLLTIVNELDLETINNLFSQLLNRTNAVYLIQTKIGLSFLTLFISRAEILKQSGTVNQNEKEEWENTFNVMFNRVKGHFSTVFPPPNARAYADESYPWEFLAACATAASSEQHFTLVSETRDRVLDNIITSKRAPSEIAVVRISNVNLFLNAMGLDARQLSA | – | –
– | PatMC/Lsm1-7 complex (complex, Pat1, S. pombe, middle and C-terminal domains (PatMC), residues 296-754; codon optimized gene in site two of pET-Duet; Lsm1, S. pombe; from a polycistron of all seven Lsm proteins; Lsm2, S. pombe; Lsm3, S. pombe; Lsm4, S. pombe; Lsm5, S. pombe; Lsm6, S. pombe; Lsm7, S. pombe; Heterooctamer, expected mass of the monomeric complex 133 kDa; TEV was added before gel filtration to remove the His6 tag …) chain 1: LDEKRQKLERDHMLMAQCAGLMTRSDKSFIARIQISQLMSEDPESDDFYYRVYSIIRGRKPSEEEASHFIQTYLGPSNNRRRGRRSENPMQKLQQQLQRLVSSAKERPKATQLSLEGALGKIAVNTVRTPRQLLNVKRPTEPASSNSSLNNFSGFSTKKDVLHAIEKVYDLLLDFEQALRKASTLETTDQEQIDTWKTTLSEKLESIWKALYINESLEASSKTRPPFISIISHPKGMRLLPRLFPHLSKEQQISILKVVVYNFDSLDIVLRGTFDVNGELPLDVVSEMSSFTQFIIPPLLTIVNELDLETINNLFSQLLNRTNAVYLIQTKIGLSFLTLFISRAEILKQSGTVNQNEKEEWENTFNVMFNRVKGHFSTVFPPPNARAYADESYPWEFLAACATAASSEQHFTLVSETRDRVLDNIITSKRAPSEIAVVRISNVNLFLNAMGLDARQLSA chain 2: MNQATQIIPFTTSGSLVDYVDRKVIVVLRDGKKLIGILRSFDQFANLMLQYTIERIYVDDMYGDIDRGVYIVRGENVVLLGELDLDKEYDAVKQLRRMPAEELYPLAKLHEEEKKKNIREKGKYLHSVGFSVDGGHDDLY chain 3: MLFYSFFKTLIDTEVTVELKNDMSIRGILKSVDQFLNVKLENISVVDASKYPHMAAVKDLFIRGSVVRYVHMSSAYVDTILLADACRRDLANNKRQ chain 4: not shown chain 5: MLPLTLLNATQGRPILVELKNGETFNGHLENCDNYMNLTLREVIRTMPDGDKFFRLPECYIRGNNIKYLRIQDEVLSQVAKQQAQQRENRGSRFRGRGQRGRGNYGHTAPNRRGRGRGGHM chain 6: not shown chain 7: MDSSPNEFLNKVIGKKVLIRLSSGVDYKGILSCLDGYMNLALERTEEYVNGKKTNVYGDAFIRGNNVLYVSALDD chain 8: MSSLQKRPGPGNSSQPTERPRKESILDLSRYQDQRIQATFTGGRQITGILKGFDQLMNLVLDDVEEQLRNPEDGKLTGAIRKLGLVVVRGTTLVLIAPMDGSEEIPNPFVQAE | 4 | 2
